# According to paper PMC314469, “Protein Interaction Networks by Proteome Peptide Scanning” (PLoS Biology, 2004):
# Target: T1, amphyphisin SH3 (AMPH_HUMAN), P49418
# T1 chain: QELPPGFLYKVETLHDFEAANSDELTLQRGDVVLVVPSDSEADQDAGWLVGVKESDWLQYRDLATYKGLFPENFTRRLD
# Test: SPOT array
row,Binder,"normalised SPOT signal, Boehringer light units (BLU); mean over the file's lines of this peptide"
1,KTKTLLRPERSRFD [O75705 229-242],239
2,LASRPTRPPEPRHI [O94836 267-281],1090
3,KSQYFWRPKRMELS [Q9NYS8 813-826],733
4,LAELPGRPPIFWPG [Q9C056 106-120],53.5
5,APALPARPHRGLST [Q9UFL7 72-85],5990
6,LAARLRRPSPPEPW [Q9P1Y6 933-946],77.5
7,LAHILRRPIIVYGV [Q9UGI0 529-542],45.6
8,KSLPLRRPSYTLGM [O43166 958-971],51.5
9,KSLKLRRPLYAHLA [Q13304 138-151],31.7
10,KSRTLKRPTVLEPI [O60469 1933-1946],29.5
11,KVTAPRRPQRYSSG [Q9ULI4 1214-1227],16200
12,KTHPLIRPFKTLTE [Q15413 2649-2662],87.1
13,LAEELIRPERNTLV [Q14566 49-62],19.4
14,KTLRLWRPPRYPRK [Q9NPT6 50-63],3230
15,KTKGPSRPPLDAKI [Q9HC16 39-53],29
16,KTEKPERPSRERDR [Q02241 662-675],9120
17,KRVVPKKPPPSPQP [Q13438 518-532],64.7
18,KYSGPYKPPGILKQ [P20933 176-190],39.4
19,LASTPKRPSTSQTV [P12270 638-651],32
20,LAELPQKPPPGDLP [Q9ULH1 746-760],62.4
21,LAQPLRRPSSVGEL [O43379 748-761],37.1

row,Binder,"normalised SPOT signal, Boehringer light units (BLU); mean over the file's lines of this peptide"
1,KTTPLRRPTETNPV [P46100 660-673],31.5
2,KSQGPAKPPPPRKP [Q13444 758-772],1320
3,APANLERPVRYIRK [Q9NYB9 126-139],3060
4,LALFLKRPKRSLFF [P41440 199-212],2280
5,KVFLLRRPPQAPLP [Q9P2E8 92-105],21
6,KYSAPRRPTATGDY [O00501 199-212],46.4
7,KRNSLKRPRDVDHR [Q9H8U9 166-179],27.9
8,KVHVPARPYRVLNN [P46013 726-739],4080
9,APEALPRPRREGEL [Q9HA29 107-120],708
10,LATQPKRPMSIPII [P16144 1316-1329],23.2
11,KTFGIRRPLDPLDP [Q9C0J1 326-339],36.6
12,LAEGINRPRKGHDA [O95985 371-384],99.3
13,LAYFPPRPPLPPSV [Q96SL1 246-260],48.7
14,LANELRRPPLSYHN [P07996 308-321],34.3
15,KSLRIARPPKQGLN [P49815 945-958],168
16,KSPIPRRPTQSFVK [Q9ULL0 591-604],24.8
17,LARIPNKPPPEYPG [Q15678 740-754],30.4
18,LAHVLRRPIVVVAD [Q9NQ53 317-330],37.4
19,LAITLRRPGSELEA [Q96KY5 32-45],16
20,APALPPKPPKPTTV [P27986 303-317],199
21,KSKKFRRPDIQYPD [P10451 170-183],24.7

# Target: endophilin SH3 (SH3G2_HUMAN), Q99962
# Test: SPOT array
row,Binder,"normalised SPOT signal, Boehringer light units (BLU); mean over the file's lines of this peptide"
1,KTKTLLRPERSRFD [O75705 229-242],80.8
2,LASRPTRPPEPRHI [O94836 267-281],22900
3,KSQYFWRPKRMELS [Q9NYS8 813-826],232
4,LAELPGRPPIFWPG [Q9C056 106-120],98
5,APALPARPHRGLST [Q9UFL7 72-85],37600
6,LAARLRRPSPPEPW [Q9P1Y6 933-946],1180
7,LAHILRRPIIVYGV [Q9UGI0 529-542],629
8,KSLPLRRPSYTLGM [O43166 958-971],322
9,KSLKLRRPLYAHLA [Q13304 138-151],38.4
10,KSRTLKRPTVLEPI [O60469 1933-1946],50.9
11,KVTAPRRPQRYSSG [Q9ULI4 1214-1227],5620
12,KTHPLIRPFKTLTE [Q15413 2649-2662],148
13,LAEELIRPERNTLV [Q14566 49-62],-0
14,KTLRLWRPPRYPRK [Q9NPT6 50-63],223
15,KTKGPSRPPLDAKI [Q9HC16 39-53],2250
16,KTEKPERPSRERDR [Q02241 662-675],403
17,KRVVPKKPPPSPQP [Q13438 518-532],278
18,KYSGPYKPPGILKQ [P20933 176-190],47.7
19,LASTPKRPSTSQTV [P12270 638-651],78
20,LAELPQKPPPGDLP [Q9ULH1 746-760],37.5
21,LAQPLRRPSSVGEL [O43379 748-761],45.3

row,Binder,"normalised SPOT signal, Boehringer light units (BLU); mean over the file's lines of this peptide"
1,KTTPLRRPTETNPV [P46100 660-673],57.5
2,KSQGPAKPPPPRKP [Q13444 758-772],7680
3,APANLERPVRYIRK [Q9NYB9 126-139],180
4,LALFLKRPKRSLFF [P41440 199-212],838
5,KVFLLRRPPQAPLP [Q9P2E8 92-105],993
6,KYSAPRRPTATGDY [O00501 199-212],36.9
7,KRNSLKRPRDVDHR [Q9H8U9 166-179],0
8,KVHVPARPYRVLNN [P46013 726-739],1730
9,APEALPRPRREGEL [Q9HA29 107-120],318
10,LATQPKRPMSIPII [P16144 1316-1329],660
11,KTFGIRRPLDPLDP [Q9C0J1 326-339],41.5
12,LAEGINRPRKGHDA [O95985 371-384],198
13,LAYFPPRPPLPPSV [Q96SL1 246-260],2170
14,LANELRRPPLSYHN [P07996 308-321],173
15,KSLRIARPPKQGLN [P49815 945-958],398
16,KSPIPRRPTQSFVK [Q9ULL0 591-604],574
17,LARIPNKPPPEYPG [Q15678 740-754],20.4
18,LAHVLRRPIVVVAD [Q9NQ53 317-330],37.7
19,LAITLRRPGSELEA [Q96KY5 32-45],27.9
20,APALPPKPPKPTTV [P27986 303-317],2440
21,KSKKFRRPDIQYPD [P10451 170-183],40.5
